Laboratory results taken from patent publication US20200262877A1, “ION CHANNEL-BINDING PEPTIDES AND METHODS OF USE THEREOF” (priority 2017, published 2020).

Columns and labels:
α4β2 = target: T1, α4β2 (Homo sapiens, UniProt P17787+P43681); test: Ion channel panel (IonWorks Barracuda): α4β2; format: cell-based; conditions: 100% = no change, <100% = inhibition
T1 construct: host or cells: HEK293 or CHO
Procedure: (§1) This example describes a method for assaying ion channel activity in cells.
(§2) Peptides were screened in duplicate at final concentrations of 20 μM and 200 nM, as determined by amino acid analysis, and diluted into HEPES buffered physiological saline (HBPS). HEK293 or CHO cells from the American Type Culture Collection (ATCC) were transfected with the appropriate ion channel before use. HEK293 cells were grown in Dulbecco's Modified Eagle Medium/Nutrient Mixture F-12, and CHO cells were cultured in Ham's F-12 media. All cultures were supplemented with 10% fetal bovine serum, 100 U/ml penicillin G, 100 μg/ml streptomycin sulfate, and the appropriate selection antibiotics. Prior to use, cells were washed twice with Hank's Balanced Salt Solution, and treated with Accutase cell detachment solution (Sigma-Aldrich). Cells were then washed. Peptides and controls were incubated with cells for at least five minutes.
(§3) Percent inhibition was defined as: (1-(Ipeptide/Icontrol))×100%).
(§4) Percent values were calculated using the following formula: % activation=(IPeptide/Icontrol)×100%, where IPeptide is the current produced by co-application a peptide with agonist, and Icontrol refers to the current produced by stimulation in control. Control used for each ion channel is the reference compound matched to a particular channel, as illustrated in TABLE 10 below.

NR2B = target: T2, NR2B (Homo sapiens, UniProt Q13224); test: Ion channel panel (IonWorks Barracuda): NR2B; format: cell-based; conditions: 100% = no change, <100% = inhibition
T2 construct: host or cells: HEK293 or CHO
Procedure: as §1, §2, §3, §4

Kv1.1 = target: T3, Kv1.1 (Homo sapiens, UniProt Q09470); test: cell-based; format: cell-based; conditions: 100% = no change, <100% = inhibition
T3 construct: host or cells: HEK293 or CHO
Procedure: as §1, §2, §3, §4

Kv1.3 = target: T4, Kv1.3 (Homo sapiens, UniProt P22001); test: cell-based; format: cell-based; conditions: 100% = no change, <100% = inhibition
T4 construct: host or cells: HEK293 or CHO
Procedure: as §1, §2, §3, §4

Kv1.2 = target: T5, Kv1.2 (Homo sapiens, UniProt P16389); test: cell-based; format: cell-based; conditions: 100% = no change, <100% = inhibition
T5 construct: host or cells: HEK293 or CHO
Procedure: as §1, §2, §3, §4

Cav2.1 = target: T6, Cav2.1 (Homo sapiens, UniProt O00555); test: cell-based; conditions: 100% = no change, <100% = inhibition
T6 construct: host or cells: HEK293 or CHO
Procedure: as §1, §2, §3, §4

Kv2.1 = target: T7, Kv2.1 (Homo sapiens, UniProt Q14721); test: cell-based; conditions: 100% = no change, <100% = inhibition
T7 construct: host or cells: HEK293 or CHO
Procedure: as §1, §2, §3, §4

Cav2.2 = target: T8, Cav2.2 (Homo sapiens, UniProt Q00975); test: cell-based; conditions: 100% = no change, <100% = inhibition
T8 construct: host or cells: HEK293 or CHO
Procedure: as §1, §2, §3, §4

hERG = hERG (Homo sapiens, UniProt Q12809); test: in vitro; conditions: 100% = no change, <100% = inhibition
Procedure: as §1, §2, §3, §4

Nav1.5 = Nav1.5 (Homo sapiens, UniProt Q14524); test: in vitro; conditions: 100% = no change; for Activity of Nav1.5 with peptide, expressed as a percentage of the reference compound: peptide at 0.2 μM; for Activity of Nav1.5 with peptide (percentage of the reference compound): peptide at 20 μM
Sequence of Nav1.5 (Q14524 whole entry): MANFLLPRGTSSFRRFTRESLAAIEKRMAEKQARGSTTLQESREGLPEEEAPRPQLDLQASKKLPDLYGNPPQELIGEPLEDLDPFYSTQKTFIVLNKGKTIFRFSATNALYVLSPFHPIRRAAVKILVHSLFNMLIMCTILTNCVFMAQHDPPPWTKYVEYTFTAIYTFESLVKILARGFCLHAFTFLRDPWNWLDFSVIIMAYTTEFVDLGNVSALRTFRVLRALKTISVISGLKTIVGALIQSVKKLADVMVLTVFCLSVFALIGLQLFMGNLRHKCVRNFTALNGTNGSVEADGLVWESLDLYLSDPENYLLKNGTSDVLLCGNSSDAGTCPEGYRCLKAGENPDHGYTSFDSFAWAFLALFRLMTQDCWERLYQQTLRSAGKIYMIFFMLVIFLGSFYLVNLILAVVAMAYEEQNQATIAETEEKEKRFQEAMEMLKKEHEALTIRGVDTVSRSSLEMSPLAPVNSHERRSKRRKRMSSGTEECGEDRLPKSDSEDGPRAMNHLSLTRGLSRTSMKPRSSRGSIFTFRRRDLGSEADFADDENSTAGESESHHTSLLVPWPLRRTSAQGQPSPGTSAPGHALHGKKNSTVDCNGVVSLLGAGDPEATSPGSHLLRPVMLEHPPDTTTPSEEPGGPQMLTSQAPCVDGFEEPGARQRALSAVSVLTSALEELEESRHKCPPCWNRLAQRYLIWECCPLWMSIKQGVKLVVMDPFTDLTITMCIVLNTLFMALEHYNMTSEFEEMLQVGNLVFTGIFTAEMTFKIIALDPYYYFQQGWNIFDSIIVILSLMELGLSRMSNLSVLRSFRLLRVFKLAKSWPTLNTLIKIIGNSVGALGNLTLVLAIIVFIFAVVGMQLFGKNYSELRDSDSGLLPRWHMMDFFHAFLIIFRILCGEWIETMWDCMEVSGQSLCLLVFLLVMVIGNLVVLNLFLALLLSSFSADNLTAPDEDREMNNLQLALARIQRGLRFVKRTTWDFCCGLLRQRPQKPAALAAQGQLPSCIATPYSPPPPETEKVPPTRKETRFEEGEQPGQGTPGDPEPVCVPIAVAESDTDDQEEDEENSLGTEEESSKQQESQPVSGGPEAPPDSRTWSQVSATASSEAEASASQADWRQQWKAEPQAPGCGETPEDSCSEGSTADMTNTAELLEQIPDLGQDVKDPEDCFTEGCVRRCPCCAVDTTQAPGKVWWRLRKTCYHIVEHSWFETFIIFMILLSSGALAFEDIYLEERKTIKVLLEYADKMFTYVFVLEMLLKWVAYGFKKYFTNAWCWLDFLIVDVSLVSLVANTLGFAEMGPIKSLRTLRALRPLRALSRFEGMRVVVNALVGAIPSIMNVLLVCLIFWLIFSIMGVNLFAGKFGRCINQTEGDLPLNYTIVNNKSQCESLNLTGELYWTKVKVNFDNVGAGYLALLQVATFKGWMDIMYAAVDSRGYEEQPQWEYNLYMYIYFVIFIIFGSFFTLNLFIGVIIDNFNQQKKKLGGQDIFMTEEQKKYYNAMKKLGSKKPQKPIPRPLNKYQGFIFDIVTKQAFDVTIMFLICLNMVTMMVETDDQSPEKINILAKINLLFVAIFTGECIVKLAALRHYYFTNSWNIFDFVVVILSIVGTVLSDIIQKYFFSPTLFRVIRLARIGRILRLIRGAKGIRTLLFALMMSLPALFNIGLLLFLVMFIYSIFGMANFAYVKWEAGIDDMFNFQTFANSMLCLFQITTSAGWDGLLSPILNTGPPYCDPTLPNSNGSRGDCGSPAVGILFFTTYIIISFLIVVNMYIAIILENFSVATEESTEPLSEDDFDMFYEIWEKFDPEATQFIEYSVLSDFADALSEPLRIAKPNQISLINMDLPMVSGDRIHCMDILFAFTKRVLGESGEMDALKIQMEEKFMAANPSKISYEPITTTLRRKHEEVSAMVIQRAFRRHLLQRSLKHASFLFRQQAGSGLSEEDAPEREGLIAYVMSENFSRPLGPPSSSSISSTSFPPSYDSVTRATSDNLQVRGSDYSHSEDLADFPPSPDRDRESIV
Procedure: as §1, §2, §3, §4

NR2A = target: T9, NR2A (Homo sapiens, UniProt Q12879); test: Ion channel panel (IonWorks Barracuda): NR2A; format: cell-based; conditions: 100% = no change, <100% = inhibition
T9 construct: host or cells: HEK293 or CHO
Procedure: as §1, §2, §3, §4

5HT3a = target: T10, 5HT3a (Homo sapiens, UniProt P46098); test: Ion channel panel (IonWorks Barracuda): 5HT3a; format: cell-based
T10 construct: host or cells: HEK293 or CHO
T10 sequence (P46098 whole entry, looked up): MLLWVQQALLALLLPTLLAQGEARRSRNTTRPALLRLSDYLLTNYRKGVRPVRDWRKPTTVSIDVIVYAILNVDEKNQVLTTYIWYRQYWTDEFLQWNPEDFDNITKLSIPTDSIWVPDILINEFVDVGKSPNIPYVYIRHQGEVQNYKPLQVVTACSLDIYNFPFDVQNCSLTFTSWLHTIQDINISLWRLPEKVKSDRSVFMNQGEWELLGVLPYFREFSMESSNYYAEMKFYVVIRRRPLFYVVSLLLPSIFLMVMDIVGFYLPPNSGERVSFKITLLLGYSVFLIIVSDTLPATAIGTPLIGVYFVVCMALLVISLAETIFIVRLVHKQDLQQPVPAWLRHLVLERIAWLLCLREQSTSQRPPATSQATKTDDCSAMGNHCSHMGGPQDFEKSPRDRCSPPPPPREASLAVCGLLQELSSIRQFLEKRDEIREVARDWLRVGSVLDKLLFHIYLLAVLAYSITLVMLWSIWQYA
Procedure: as §1, §2, §3, §4

Nav1.7 = target: T11, Nav1.7 (Homo sapiens, UniProt Q15858); test: cell-based; format: cell-based; conditions: 100% = no change; for Activity of Nav1.7 with peptide, expressed as a percentage of the reference compound: peptide at 0.2 μM; for Activity of Nav1.7 with peptide (percentage of the reference compound): peptide at 20 μM
T11 construct: host or cells: HEK293 or CHO
T11 sequence (Q15858 whole entry): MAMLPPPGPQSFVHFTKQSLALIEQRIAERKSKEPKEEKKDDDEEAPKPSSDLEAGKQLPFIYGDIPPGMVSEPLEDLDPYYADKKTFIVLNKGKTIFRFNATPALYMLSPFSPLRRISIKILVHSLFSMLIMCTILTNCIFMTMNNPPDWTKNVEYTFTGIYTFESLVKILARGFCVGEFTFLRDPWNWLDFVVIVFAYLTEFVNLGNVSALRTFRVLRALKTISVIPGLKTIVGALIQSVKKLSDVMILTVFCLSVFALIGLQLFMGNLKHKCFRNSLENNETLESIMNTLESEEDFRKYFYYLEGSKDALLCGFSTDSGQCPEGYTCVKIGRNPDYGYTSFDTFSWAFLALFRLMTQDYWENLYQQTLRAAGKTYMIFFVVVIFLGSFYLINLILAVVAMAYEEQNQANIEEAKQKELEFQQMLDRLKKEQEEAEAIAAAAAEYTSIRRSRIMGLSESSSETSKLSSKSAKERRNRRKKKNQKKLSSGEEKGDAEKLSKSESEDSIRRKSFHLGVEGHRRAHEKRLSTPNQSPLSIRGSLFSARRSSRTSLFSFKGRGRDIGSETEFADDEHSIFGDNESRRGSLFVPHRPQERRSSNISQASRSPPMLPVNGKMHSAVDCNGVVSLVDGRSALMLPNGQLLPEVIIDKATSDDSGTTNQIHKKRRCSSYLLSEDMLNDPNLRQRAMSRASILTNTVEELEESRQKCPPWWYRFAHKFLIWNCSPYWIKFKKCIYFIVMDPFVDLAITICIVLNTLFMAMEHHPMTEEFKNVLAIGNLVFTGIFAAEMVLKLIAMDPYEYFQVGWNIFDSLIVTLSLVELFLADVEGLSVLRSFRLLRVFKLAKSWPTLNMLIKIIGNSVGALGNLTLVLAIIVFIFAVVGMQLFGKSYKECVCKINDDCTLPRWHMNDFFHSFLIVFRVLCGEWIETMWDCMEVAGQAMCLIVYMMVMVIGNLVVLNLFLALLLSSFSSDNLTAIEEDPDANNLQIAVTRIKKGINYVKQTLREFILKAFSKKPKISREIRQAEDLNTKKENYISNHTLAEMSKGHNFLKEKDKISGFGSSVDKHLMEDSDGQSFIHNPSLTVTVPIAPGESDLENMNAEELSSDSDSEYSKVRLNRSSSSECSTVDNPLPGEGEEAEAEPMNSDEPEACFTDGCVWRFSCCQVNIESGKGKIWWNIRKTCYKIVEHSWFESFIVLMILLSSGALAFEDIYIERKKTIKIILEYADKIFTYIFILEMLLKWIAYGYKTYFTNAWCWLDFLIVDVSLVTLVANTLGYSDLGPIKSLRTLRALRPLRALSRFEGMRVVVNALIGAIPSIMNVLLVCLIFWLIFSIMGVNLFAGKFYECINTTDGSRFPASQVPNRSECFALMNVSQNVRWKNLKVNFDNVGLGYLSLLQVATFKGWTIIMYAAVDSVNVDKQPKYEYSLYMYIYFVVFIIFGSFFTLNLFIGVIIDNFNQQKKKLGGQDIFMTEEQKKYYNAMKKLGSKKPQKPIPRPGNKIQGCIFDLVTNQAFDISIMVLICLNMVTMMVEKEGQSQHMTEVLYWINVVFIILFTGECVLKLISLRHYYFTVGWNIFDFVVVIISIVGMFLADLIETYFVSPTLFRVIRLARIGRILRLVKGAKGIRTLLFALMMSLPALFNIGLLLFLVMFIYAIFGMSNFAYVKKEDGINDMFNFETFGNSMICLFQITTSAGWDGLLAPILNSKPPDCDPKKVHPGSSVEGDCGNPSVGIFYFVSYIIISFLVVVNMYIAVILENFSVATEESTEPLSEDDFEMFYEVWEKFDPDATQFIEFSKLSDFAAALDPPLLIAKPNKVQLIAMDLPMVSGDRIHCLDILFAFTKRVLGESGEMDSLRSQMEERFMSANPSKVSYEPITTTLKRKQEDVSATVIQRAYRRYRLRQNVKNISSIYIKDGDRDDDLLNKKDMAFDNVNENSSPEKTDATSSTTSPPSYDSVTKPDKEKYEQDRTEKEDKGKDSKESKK
Procedure: as §1
as §2, with “Peptides were screened in duplicate at final concentrations of 20 μM and 200 nM, as determined by amino acid analysis, and diluted into HEPES buffered physiological saline (HBPS).” left out
as §3, §4

TRPV1 = target: T12, TRPV1 (Homo sapiens, UniProt Q8NER1); test: Ion channel panel (IonWorks Barracuda): TRPV1; format: cell-based; conditions: 100% = no change, <100% = inhibition
T12 construct: host or cells: HEK293 or CHO
Procedure: as §1, §2, §3, §4

α3β4 = target: T13, α3β4 (Homo sapiens, UniProt P30926+P32297); test: Ion channel panel (IonWorks Barracuda): α3β4; format: cell-based; conditions: 100% = no change, <100% = inhibition
T13 construct: host or cells: HEK293 or CHO
Procedure: as §1, §2, §3, §4

TRPA1 = target: T14, TRPA1 (Homo sapiens, UniProt O75762); test: Ion channel panel (IonWorks Barracuda): TRPA1; format: cell-based; conditions: 100% = no change, <100% = inhibition
T14 construct: host or cells: HEK293 or CHO
T14 sequence (O75762 whole entry): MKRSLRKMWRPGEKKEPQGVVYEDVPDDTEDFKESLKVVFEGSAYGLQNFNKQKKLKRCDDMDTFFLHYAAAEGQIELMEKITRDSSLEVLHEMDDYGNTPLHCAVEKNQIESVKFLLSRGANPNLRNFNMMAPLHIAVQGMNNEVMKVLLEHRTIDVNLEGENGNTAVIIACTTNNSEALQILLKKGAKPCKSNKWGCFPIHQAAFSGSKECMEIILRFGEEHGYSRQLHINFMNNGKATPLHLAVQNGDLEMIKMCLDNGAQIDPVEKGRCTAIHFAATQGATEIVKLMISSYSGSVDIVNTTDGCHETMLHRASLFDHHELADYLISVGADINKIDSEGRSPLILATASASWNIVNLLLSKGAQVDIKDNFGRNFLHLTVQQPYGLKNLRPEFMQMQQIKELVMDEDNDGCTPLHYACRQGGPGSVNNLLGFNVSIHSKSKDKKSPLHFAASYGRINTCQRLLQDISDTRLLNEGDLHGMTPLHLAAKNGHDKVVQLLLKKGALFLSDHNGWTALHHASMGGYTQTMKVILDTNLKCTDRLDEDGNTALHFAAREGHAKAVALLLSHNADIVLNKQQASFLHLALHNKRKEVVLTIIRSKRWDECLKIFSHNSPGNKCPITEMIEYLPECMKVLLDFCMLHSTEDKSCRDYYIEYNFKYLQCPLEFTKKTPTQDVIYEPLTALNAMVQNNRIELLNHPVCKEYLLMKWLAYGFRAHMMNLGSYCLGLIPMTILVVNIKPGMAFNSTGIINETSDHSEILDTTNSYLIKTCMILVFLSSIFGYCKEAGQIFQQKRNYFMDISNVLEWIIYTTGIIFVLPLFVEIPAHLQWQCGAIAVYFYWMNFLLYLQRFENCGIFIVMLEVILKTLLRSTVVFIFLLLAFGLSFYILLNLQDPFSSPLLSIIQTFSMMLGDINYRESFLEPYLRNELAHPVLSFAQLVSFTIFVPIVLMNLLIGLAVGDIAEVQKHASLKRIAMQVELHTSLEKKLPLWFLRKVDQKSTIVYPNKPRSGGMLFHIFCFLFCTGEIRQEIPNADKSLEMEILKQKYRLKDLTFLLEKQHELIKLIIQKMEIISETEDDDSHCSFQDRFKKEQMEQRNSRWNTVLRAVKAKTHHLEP
Procedure: as §1, §2, §3, §4

Kir2.1 = target: T15, Kir2.1 (Homo sapiens, UniProt P63252); test: Ion channel panel (IonWorks Barracuda): Kir2.1; format: cell-based; conditions: 100% = no change, <100% = inhibition
T15 construct: host or cells: HEK293 or CHO
Procedure: as §1, §2, §3, §4

GABA = test: Ion channel panel (IonWorks Barracuda): GABA; format: cell-based; conditions: 100% = no change, <100% = inhibition
Procedure: as §1, §2, §3, §4

[1] = first of two Nav1.5 columns (probably TP1)
[2] = second of two Nav1.5 columns (probably TP2)
[3] = first of two Nav1.7 columns (probably TP1)
[4] = second of two Nav1.7 columns (probably TP2)

## 6 (GSVRIPVSCKHSGQCLKPCKDAGMRFGKCMNGKCDCTPK) [compound 6]
α4β2; peptide at 0.2 μM
  Activity of a4b2 with peptide, expressed as a percentage of the reference compound: 71%
α4β2; peptide at 20 μM
  Activity of a4b2 with peptide (percentage of the reference compound): 96%
NR2B; peptide at 0.2 μM
  Activity of NR2B with peptide, expressed as a percentage of the reference compound: 92%
NR2B; peptide at 20 μM
  Activity of NR2B with peptide (percentage of the reference compound): 75%
Kv1.1; peptide at 0.2 μM
  Activity of Kv1.1 with peptide, expressed as a percentage of the reference compound: 96%
Kv1.1; peptide at 20 μM
  Activity of Kv1.1 with peptide (percentage of the reference compound): 30%
Kv1.3; peptide at 0.2 μM
  Activity of Kv1.3 with peptide, expressed as a percentage of the reference compound: 25%
Kv1.3; peptide at 20 μM
  Activity of Kv1.3 with peptide (percentage of the reference compound): 0%
Kv1.2; peptide at 0.2 μM
  Activity of Kv1.2 with peptide, expressed as a percentage of the reference compound: 81%
Kv1.2; peptide at 20 μM
  Activity of Kv1.2 with peptide (percentage of the reference compound): 85%
Cav2.1; peptide at 0.2 μM
  Activity of Cav2.1 with peptide, expressed as a percentage of the reference compound: 109%
Cav2.1; peptide at 20 μM
  Activity of Cav2.1 with peptide (percentage of the reference compound): 111%
Kv2.1; peptide at 0.2 μM
  Activity of Kv2.1 with peptide, expressed as a percentage of the reference compound: 103%
Kv2.1; peptide at 20 μM
  Activity of Kv2.1 with peptide (percentage of the reference compound): 124%
Cav2.2; peptide at 0.2 μM
  Activity of Cav2.2 with peptide, expressed as a percentage of the reference compound: 103%
Cav2.2; peptide at 20 μM
  Activity of Cav2.2 with peptide (percentage of the reference compound): 107%
hERG; peptide at 0.2 μM
  Activity of hERG with peptide, expressed as a percentage of the reference compound: 107%
hERG; peptide at 20 μM
  Activity of hERG with peptide (percentage of the reference compound): 71%
Nav1.5; [1]
  Activity of Nav1.5 with peptide, expressed as a percentage of the reference compound: 105%
  Activity of Nav1.5 with peptide (percentage of the reference compound): 116%
Nav1.5; [2]
  Activity of Nav1.5 with peptide, expressed as a percentage of the reference compound: 104%
  Activity of Nav1.5 with peptide (percentage of the reference compound): 120%
NR2A; peptide at 0.2 μM
  Activity of NR2A with peptide, expressed as a percentage of the reference compound: 86%
NR2A; peptide at 20 μM
  Activity of NR2A with peptide (percentage of the reference compound): 88%
5HT3a
  Activity of 5HT3a with peptide (percentage of the reference compound): 84%
  Activity of 5HT3a with peptide, expressed as a percentage of the reference compound: 85%
Nav1.7; [3]
  Activity of Nav1.7 with peptide, expressed as a percentage of the reference compound: 98%
  Activity of Nav1.7 with peptide (percentage of the reference compound): 116%
Nav1.7; [4]
  Activity of Nav1.7 with peptide, expressed as a percentage of the reference compound: 95%
  Activity of Nav1.7 with peptide (percentage of the reference compound): 119%
TRPV1; peptide at 0.2 μM
  Activity of TRPV1 with peptide, expressed as a percentage of the reference compound: 86%
TRPV1; peptide at 20 μM
  Activity of TRPV1 with peptide (percentage of the reference compound): 98%
α3β4; peptide at 0.2 μM
  Activity of a3b4 with peptide, expressed as a percentage of the reference compound: 100%
α3β4; peptide at 20 μM
  Activity of a3b4 with peptide (percentage of the reference compound): 95%
TRPA1; peptide at 0.2 μM
  Activity of TRPA1 with peptide, expressed as a percentage of the reference compound: 126%
TRPA1; peptide at 20 μM
  Activity of TRPA1 with peptide (percentage of the reference compound): 92%
Kir2.1; peptide at 0.2 μM
  Activity of Kir2.1 with peptide, expressed as a percentage of the reference compound: 96%
Kir2.1; peptide at 20 μM
  Activity of Kir2.1 with peptide (percentage of the reference compound): 94%
GABA; peptide at 0.2 μM
  Activity of GABA with peptide, expressed as a percentage of the reference compound: 104%
GABA; peptide at 20 μM
  Activity of GABA with peptide (percentage of the reference compound): 96%
